Laboratory results taken from patent US20260317410 (published 2026).

Experiments:
His-Nectin-4 ECD = target: T1, His-Nectin-4 ECD (human, UniProt Q96NY8); experiment: BLI, 26C
T1 chain: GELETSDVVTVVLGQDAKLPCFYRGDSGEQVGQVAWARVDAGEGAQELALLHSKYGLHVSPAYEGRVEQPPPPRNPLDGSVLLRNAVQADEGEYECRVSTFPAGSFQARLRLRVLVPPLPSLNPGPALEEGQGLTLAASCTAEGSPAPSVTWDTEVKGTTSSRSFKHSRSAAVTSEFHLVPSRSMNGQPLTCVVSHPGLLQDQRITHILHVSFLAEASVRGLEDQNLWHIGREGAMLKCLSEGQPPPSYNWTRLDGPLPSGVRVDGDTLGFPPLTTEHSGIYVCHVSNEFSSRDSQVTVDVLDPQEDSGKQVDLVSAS

Fc-Nectin-4 IgV = target: T2, Fc-Nectin-4 IgV (human, UniProt Q96NY8); experiment: BLI, 26C, bivalent analyte
T2 chain: T1 chain

B1: HA22 (Enfortumab) (antibody, V domains shown)
VH: EVQLVESGGGLVQPGGSLRLSCAASGFTFSSYNMNWVRQAPGKGLEWVSYISSSSSTIYYADSVKGRFTISRDNAKNSLSLQMNSLRDEDTAVYYCARAYYYGMDVWGQGTTVTVSS
VL: DIQMTQSPSSVSASVGDRVTITCRASQGISGWLAWYQQKPGKAPKFLIYAASTLQSGVPSRFSGSGSGTDFTLTISSLQPEDFATYYCQQANSFPPTFGGGTKVEIK
Binder B1 has a Kd (His-Nectin-4 ECD) of 5.2 nM and a Kd (Fc-Nectin-4 IgV) of 12.9 nM.
